From patent US20230220458 come the findings set out here.

This series concerns HhaI restriction endonuclease. As to the kind of experiment: cleavage_in_vitro. As to conditions: 37 C 2 h.

With “CGGATAGCGCGGCGGGCGACAGCCCCCCGGATAACCCCGCCGAGGGAGGGGCGCTTGTAAAACCGAGCGGCG (double strand) [lung cancer test locus, unmethylated genomic dsDNA (A-673)]”, under “100% dsDNA, no visible amplification of test locus after digestion”, the activity (cycles (deltaCq test vs control locus)) was greater than 18.

Under “100% ssDNA, digestion impaired”, “CGGATAGCGCGGCGGGCGACAGCCCCCCGGATAACCCCGCCGAGGGAGGGGCGCTTGTAAAACCGAGCGGCG [lung cancer test locus, synthetic ssDNA oligonucleotide]” displayed an activity (cycles (deltaCq test vs control locus)) of 7.51.
